Assay results from patent US20120108492A1, “LIGAND-SPECIFIC NON-ANTIBODY COMPOUNDS THAT INHIBIT CR2 ACTIVATION AND METHODS OF USE THEREOF” (The Regents of the University of Colorado, priority 2008, published 2012).

T1: wild-type MBP-CR2 SCR1-2 (human), P20023
T1 chain: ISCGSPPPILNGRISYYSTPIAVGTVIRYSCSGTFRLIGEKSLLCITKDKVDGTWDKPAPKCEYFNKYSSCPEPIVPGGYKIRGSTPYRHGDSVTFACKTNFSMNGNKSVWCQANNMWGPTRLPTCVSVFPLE


Target: T1, wild-type MBP-CR2 SCR1-2 (human), P20023
Test: competition ELISA: C3d on plate, MBP-CR2 SCR1-2 with increasing peptide, ⅓×PBS

Binder | IC50 [µM]
ISTSNPRHHSTA (modifications not checked) [peptide C3dp2] | 450
TRSYQSSLHQPA (modifications not checked) [peptide C3dp1.2] | 70
APAHLSSQ (modifications not checked) [control peptide] | 700
ISTSNPRH (modifications not checked) [peptide C3dp2.2] | 190
APQALSSQYSRT (modifications not checked) [peptide C3dp1.1] | 70
APQHLSSQYSRT (modifications not checked) [peptide C3dp1] | 100
DPKNHVH (modifications not checked) [peptide C3dcp1.1] | 95
IATANPRHHSTA (modifications not checked) [peptide C3dp2.3] | 160
ISTSNPRAASTA (modifications not checked) [peptide C3dp2.1] | 150
APQHLSSQ (modifications not checked) [peptide C3dp1.3] | 40

Target: T1, wild-type MBP-CR2 SCR1-2 (human), P20023
Test: not given

Binder | IC50 [µM]
CSEGSLKGC (modifications not checked) [peptide EBV gp350 cp1] | 150
